{"source": "paper PMC12622518", "about": "(Advanced Science, 2025)", "key": {"[1]": {"target": "ligand-binding domain of CsiR (CsiR-LBD) (P. putida KT2440)", "experiment": "SEC; gel filtration on Superdex 200 10/300 GL, 50 mM sodium phosphate buffer pH 7.2, 150 mM NaCl; mass standards aprotinin, ovalbumin, conalbumin, aldolase, ferritin"}, "YnfM": {"target": "T1, YnfM (Escherichia coli, UniProt P43531)", "T1 construct": "native MFS exporter in living E. coli BL21(DE3) cells; ynfM knockout comparison with Glusor read-out", "T1 sequence (P43531 1-417)": "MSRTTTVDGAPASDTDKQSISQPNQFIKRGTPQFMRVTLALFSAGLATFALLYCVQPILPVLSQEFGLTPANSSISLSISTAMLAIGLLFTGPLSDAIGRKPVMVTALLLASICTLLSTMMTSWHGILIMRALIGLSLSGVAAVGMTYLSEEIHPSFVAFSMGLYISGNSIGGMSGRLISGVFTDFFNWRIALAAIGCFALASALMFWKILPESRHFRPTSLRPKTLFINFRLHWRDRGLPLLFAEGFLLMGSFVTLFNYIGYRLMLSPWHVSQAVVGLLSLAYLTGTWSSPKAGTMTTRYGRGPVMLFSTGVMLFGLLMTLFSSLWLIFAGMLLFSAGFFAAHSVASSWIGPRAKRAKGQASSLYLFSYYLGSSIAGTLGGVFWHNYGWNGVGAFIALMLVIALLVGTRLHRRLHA", "experiment": "efflux in knockout versus parent E. coli, intra- and extracellular Glusor fluorescence", "assay_type": "cell-based", "details": "carbon starvation, 30 °C"}, "CsiR": {"target": "T2, CsiR (Pseudomonas putida, UniProt Q88IU1)", "T2 construct": "full-length, His6-tagged, purified from E. coli BL21(DE3) (pETDuet-CsiR); dimer", "T2 sequence (Q88IU1 1-231)": "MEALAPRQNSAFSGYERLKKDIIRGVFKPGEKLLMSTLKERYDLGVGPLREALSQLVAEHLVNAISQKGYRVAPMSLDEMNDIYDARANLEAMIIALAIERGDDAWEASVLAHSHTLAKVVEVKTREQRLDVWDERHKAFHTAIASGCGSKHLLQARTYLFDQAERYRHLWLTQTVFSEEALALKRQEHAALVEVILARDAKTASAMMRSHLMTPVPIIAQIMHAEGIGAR", "experiment": "fluorescence-based thermal shift (SYPRO Orange)", "assay_type": "binding", "details": "100 µM ligand; 20 mM sodium phosphate, 150 mM NaCl, pH 7.4"}, "[2]": {"target": "the molecule itself", "experiment": "SEC; gel filtration on Superdex 200 10/300 GL, 50 mM sodium phosphate buffer pH 7.2, 150 mM NaCl; mass standards aprotinin, ovalbumin, conalbumin, aldolase, ferritin"}}, "data": [{"molecule": "ligand-binding domain of CsiR (CsiR-LBD) (domain or fragment)", "values": [{"measurement": "stoichiometry N", "setting": "[1]", "value": 2}]}, {"molecule": "O=C(O)CCCC(=O)O", "note": "[glutarate]", "values": [{"measurement": "efflux in knockout versus parent E. coli, intra- and extracellular Glusor fluore", "setting": "YnfM", "value": "YnfM may be the only functional glutarate exporter in E. coli BL21(DE3)"}, {"measurement": "ΔTm", "setting": "CsiR", "value": "only glutarate induced a significant increase in the melting temperature (Tm) of CsiR"}]}, {"molecule": "GntR family transcriptional regulator CsiR (natural protein, P. putida KT2440, UniProt Q88IU1 1-231, looked up, CsiR, GntR family transcriptional regulator of the csiD-lhgO operon, Pseudomonas putida KT2440; csiR gene cloned into pETDuet-1 (pETDuet-CsiR); also called His6-tagged CsiR) MEALAPRQNSAFSGYERLKKDIIRGVFKPGEKLLMSTLKERYDLGVGPLREALSQLVAEHLVNAISQKGYRVAPMSLDEMNDIYDARANLEAMIIALAIERGDDAWEASVLAHSHTLAKVVEVKTREQRLDVWDERHKAFHTAIASGCGSKHLLQARTYLFDQAERYRHLWLTQTVFSEEALALKRQEHAALVEVILARDAKTASAMMRSHLMTPVPIIAQIMHAEGIGAR", "values": [{"measurement": "stoichiometry N", "setting": "[2]", "value": 2}]}, {"molecule": "genetically encoded glutarate fluorescent biosensor Glusor (other) LDEMNDIYDARANLEAMIIALAIERGDDAWEASVLAHSHTLAKVVEVKTREQRLDVWDERHKAFHTAIASGCGSKHLLQARTYLFDQAERYRHLWLTQTVFSEEALALKRQEHAALVEVILARDAKTASAMMRSHLMTPVPIIAQIMHAEGIGAR", "values": [{"measurement": "stoichiometry N", "setting": "[2]", "value": 2}]}]}
